{"source": "the supplement of paper PMC5998384", "key": {"HeLa Kyoto [1]": {"test_system": "HeLa Kyoto", "test": "solubility change mitosis vs G1/S (difference of NP-40 vs SDS log2 ratios) (log2 ratio difference); higher = more soluble in mitosis"}, "HeLa Kyoto [2]": {"test_system": "HeLa Kyoto", "test": "solubility in G1/S (NP-40 vs SDS abundance) (log2 ratio); higher = more soluble", "settings": "cell cycle stage: G1/S"}}}
{"sequence": "MDEDEFELQPQEPNSFFDGIGADATHMDGDQIVVEIQEAVFVSNIVDSDITVHNFVPDDPDSVVIQDVVEDVVIEEDVQCSDILEEADVSENVIIPEQVLDSDVTEEVSLPHCTVPDDVLASDITSTSMSMPEHVLTSESMHVCDIGHVEHMVHDSVVEAEIITDPLTSDIVSEEVLVADCAPEAVIDASGISVDQQDNDKASCEDYLMISLDDAGKIEHDGSTGVTIDAESEMDPCKVDSTCPEVIKVYIFKADPGEDDLGGTVDIVESEPENDHGVELLDQNSSIRVPREKMVYMTVNDSQQEDEDLNVAEIADEVYMEVIVGEEDAAVAAAAAAVHEQQIDEDEMKTFVPIAWAAAYGNNSDGIENRNGTASALLHIDESAGLGRLAKQKPKKKRRPDSRQYQTAIIIGPDGHPLTVYPCMICGKKFKSRGFLKRHMKNHPEHLAKKKYHCTDCDYTTNKKISLHNHLESHKLTSKAEKAIECDECGKHFSHAGALFTHKMVHKEKGANKMHKCKFCEYETAEQGLLNRHLLAVHSKNFPHICVECGKGFRHPSELRKHMRIHTGEKPYQCQYCEYRSADSSNLKTHIKTKHSKEMPFKCDICLLTFSDTKEVQQHTLVHQESKTHQCLHCDHKSSNSSDLKRHVISVHTKDYPHKCEMCEKGFHRPSELKKHVAVHKGKKMHQCRHCDFKIADPFVLSRHILSVHTKDLPFRCKRCRKGFRQQNELKKHMKTHSGRKVYQCEYCEYSTTDASGFKRHVISIHTKDYPHRCEYCKKGFRRPSEKNQHIMRHHKEVGLP [ZFY]", "values": [{"measurement": "solubility change mitosis (log2)", "setting": "HeLa Kyoto [1]", "value": 0.257}, {"measurement": "solubility in G1/S (log2)", "setting": "HeLa Kyoto [2]", "value": -0.668}]}
{"sequence": "MLLSVTSRPGISTFGYNRNNKKPYVSLAQQMAPPSPSNSTPNSSSGSNGNDQLSKTNLYIRGLQPGTTDQDLVKLCQPYGKIVSTKAILDKTTNKCKGYGFVDFDSPSAAQKAVTALKASGVQAQMAKQQEQDPTNLYISNLPLSMDEQELEGMLKPFGQVISTRILRDTSGTSRGVGFARMESTEKCEAIITHFNGKYIKTPPGVPAPSDPLLCKFADGGPKKRQNQGKFVQNGRAWPRNADMGVMALTYDPTTALQNGFYPAPYNITPNRMLAQSALSPYLSSPVSSYQRVTQTSPLQVPNPSWMHHHSYLMQPSGSVLTPGMDHPISLQPASMMGPLTQQLGHLSLSSTGTYMPTAAAMQGAYISQYTPVPSSSVSVEESSGQQNQVAVDAPSEHGVYSFQFNK [RBMS2]", "values": [{"measurement": "solubility change mitosis (log2)", "setting": "HeLa Kyoto [1]", "value": 0.0678}, {"measurement": "solubility in G1/S (log2)", "setting": "HeLa Kyoto [2]", "value": 0.474}]}
{"sequence": "MAEAVERTDELVREYLLFRGFTHTLRQLDAEIKADKEKGFRVDKIVDQLQQLMQVYDLAALRDYWSYLERRLFSRLEDIYRPTIHKLKTSLFRFYLVYTIQTNRNDKAQEFFAKQATELQNQAEWKDWFVLPFLPSPDTNPTFATYFSRQWADTFIVSLHNFLSVLFQCMPVPVILNFDAECQRTNQVQEENEVLRQKLFALQAEIHRLKKEEQQPEEEEALVQHKLPPYVSNMDRLGDSELAMVCSQRNASLSQSPRVGFLSSLLPQSKKSPSRLSPAQGPPQPQSSAKKESFGGQGTKGKDPTSGAKDGKSLLSGLATGESGWSQHRQRRLQDHGKERKELFSTTTSQCAEKKPEASGPEAEPCPELHTEPVEPLTRASSAGPEGGGVRPEQPFIVLGQEEYGEHHSSIMHCRVDCSGRRVASLDVDGVIKVWSFNPIMQTKASSISKSPLLSLEWATKRDRLLLLGSGVGTVRLYDTEAKKNLCEININDNMPRILSLACSPNGASFVCSAAAPSLTSQVDFSAPDIGSKGMNQVPGRLLLWDTKTMKQQLQFSLDPEPIAINCTAFNHNGNLLVTGAADGVIRLFDMQQHECAMSWRAHYGEVYSVEFSYDENTVYSIGEDGKFIQWNIHKSGLKVSEYSLPSDATGPFVLSGYSGYKQVQVPRGRLFAFDSEGNYMLTCSATGGVIYKLGGDEKVLESCLSLGGHRAPVVTVDWSTAMDCGTCLTASMDGKIKLTTLLAHKA [WDR91]", "values": [{"measurement": "solubility change mitosis (log2)", "setting": "HeLa Kyoto [1]", "value": 0.0607}, {"measurement": "solubility in G1/S (log2)", "setting": "HeLa Kyoto [2]", "value": -0.122}]}
{"sequence": "MAEIIQERIEDRLPELEQLERIGLFSHAEIKAIIKKASDLEYKIQRRTLFKEDFINYVQYEINLLELIQRRRTRIGYSFKKDEIENSIVHRVQGVFQRASAKWKDDVQLWLSYVAFCKKWATKTRLSKVFSAMLAIHSNKPALWIMAAKWEMEDRLSSESARQLFLRALRFHPECPKLYKEYFRMELMHAEKLRKEKEEFEKASMDVENPDYSEEILKGELAWIIYKNSVSIIKGAEFHVSLLSIAQLFDFAKDLQKEIYDDLQALHTDDPLTWDYVARRELEIESQTEEQPTTKQAKAVEVGRKEERCCAVYEEAVKTLPTEAMWKCYITFCLERFTKKSNSGFLRGKRLERTMTVFRKAHELKLLSECQYKQLSVSLLCYNFLREALEVAVAGTELFRDSGTMWQLKLQVLIESKSPDIAMLFEEAFVHLKPQVCLPLWISWAEWSEGAKSQEDTEAVFKKALLAVIGADSVTLKNKYLDWAYRSGGYKKARAVFKSLQESRPFSVDFFRKMIQFEKEQESCNMANIREYYERALREFGSADSDLWMDYMKEELNHPLGRPENCGQIYWRAMKMLQGESAEAFVAKHAMHQTGHL [UTP6]", "values": [{"measurement": "solubility change mitosis (log2)", "setting": "HeLa Kyoto [1]", "value": 0.707}, {"measurement": "solubility in G1/S (log2)", "setting": "HeLa Kyoto [2]", "value": -2.05}]}
{"sequence": "MAAAKPTLTDSLSFCLAQLAAAAGEALGGEKDPATNETPLSRALLALRTRHIKAAGGIERFRARGGLRPLLALLRRAAAAGSAPSQAGPGSAPSSAASGASSPAPASGPAPSAVSSSSPTPPVRLRKTLDLALSILADCCTEGACRTEVRRLGGILPLVTILQCMKTDSIQNRTARALGNLAMEPESCGDIHCAGAVPLLVESLTACQDSQCLQSVVRALRNLADSPQHRLALAQQGAVRPLAELLATAPDAALTLALVRALLELSRGCSRACAEQLSLGGGLGPLVSLASHPKRAVREGTILILANLCAQGLIRPALGNAGGVEVLVDELRQRRDPNGASPTSQQPLVRAVCLLCREAINRARLRDAGGLDLLMGLLRDPRASAWHPRIVAALVGFLYDTGALGRLQALGLVPLLAGQLCGEAGEEEEEGREAASWDFPEERTPERAQGGSFRSLRSWLISEGYATGPDDISPDWSPEQCPPEPMEPASPAPTPTSLRAPRTQRTPGRSPAAAIEEPWGREGPALLLLSRFSQAPDPSGALVTGPALYGLLTYVTGAPGPPSPRALRILSRLTCNPACLEAFVRSYGAALLRAWLVLGVAPDDWPAPRARPTLHSRHRELGERLLQNLTVQAESPFGVGALTHLLLSGSPEDRVACALTLPFICRKPSLWRRLLLEQGGLRLLLAALTRPAPHPLFLFFAADSLSCLQDLVSPTVSPAVPQAVPMDLDSPSPCLYEPLLGPAPVPAPDLHFLLDSGLQLPAQRAASATASPFFRALLSGSFAEAQMDLVPLRGLSPGAAWPVLHHLHGCRGCGAALGPVPPPGQPLLGSEAEEALEAAGRFLLPGLEEELEEAVGRIHLGPQGGPESVGEVFRLGRPRLAAHCARWTLGSEQCPRKRGLALVGLVEAAGEEAGPLTEALLAVVMGIELGARVPA [ARMC5]", "values": [{"measurement": "solubility change mitosis (log2)", "setting": "HeLa Kyoto [1]", "value": 0.0453}, {"measurement": "solubility in G1/S (log2)", "setting": "HeLa Kyoto [2]", "value": 0.0745}]}
{"sequence": "MTQDRPLLAVQEALKKCFPVVEEQQGLWQSALRDCQPLLSSLSNLAEQLQAAQNLRFEDVPALRAFPDLKERLRRKQLVAGDIVLDKLGERLAILLKVRDMVSSHVERVFQIYEQHADTVGIDAVLQPSAVSPSVADMLEWLQDIERHYRKSYLKRKYLLSSIQWGDLANIQALPKAWDRISKDEHQDLVQDILLNVSFFLEE [C1ORF109]", "values": [{"measurement": "solubility change mitosis (log2)", "setting": "HeLa Kyoto [1]", "value": 0.16}, {"measurement": "solubility in G1/S (log2)", "setting": "HeLa Kyoto [2]", "value": 0.0701}]}
{"sequence": "MAGLGLGSAVPVWLAEDDLGCIICQGLLDWPATLPCGHSFCRHCLEALWGARDARRWACPTCRQGAAQQPHLRKNTLLQDLADKYRRAAREIQAGSDPAHCPCPGSSSLSSAAARPRRRPELQRVAVEKSITEVAQELTELVEHLVDIVRSLQNQRPLSESGPDNELSILGKAFSSGVDLSMASPKLVTSDTAAGKIRDILHDLEEIQEKLQESVTWKEAPEAQMQGELLEAPSSSSCPLPDQSHPALRRASRFAQWAIHPTFNLKSLSCSLEVSKDSRTVTVSHRPQPYRWSCERFSTSQVLCSQALSSGKHYWEVDTRNCSHWAVGVASWEMSRDQVLGRTMDSCCVEWKGTSQLSAWHMVKETVLGSDRPGVVGIWLNLEEGKLAFYSVDNQEKLLYECTISASSPLYPAFWLYGLHPGNYLIIKQVKV [RNF135]", "values": [{"measurement": "solubility change mitosis (log2)", "setting": "HeLa Kyoto [1]", "value": -0.147}, {"measurement": "solubility in G1/S (log2)", "setting": "HeLa Kyoto [2]", "value": 0.0392}]}
